Source: the supplement of paper PMC9112550, “Optimization of the antimicrobial peptide Bac7 by deep mutational scanning” (BMC Biology, 2022)
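Also: peptides expressed intracellularly from a pBAD plasmid library in pooled LB shake-flask culture, induced with 0.3% L-arabinose, DNA abundance read by NGS, three biological replicates, DESeq2 with apeglm shrinkage.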

What follows are sequences tested on Escherichia coli TOP10 (assay: shrunken log2 fold change of peptide-encoding DNA abundance (4.5 h post-induction vs induction); higher = less antimicrobial activity (less host growth inhibition)). Conditions: time post-induction: 4.5 h; library: site-saturation at positions 5, 18, 19, 20.
RRIRRRPPRLPRPRPRPLCMPRP was tested, and the “shrunken log2 fold change” value was -0.126. RRIRRRPPRLPRPRPRPLDMPRP was tested, and the “shrunken log2 fold change” value was -0.114. RRIRRRPPRLPRPRPRPLELPRP was tested, and the “shrunken log2 fold change” value was 0.199. RRIRRRPPRLPRPRPRPLEQPRP was tested, and the “shrunken log2 fold change” value was 0.166. In the case of RRIRRRPPRLPRPRPRPLETPRP, the “shrunken log2 fold change” value is reported as 1.01. RRIRRRPPRLPRPRPRPLEWPRP was tested, and the “shrunken log2 fold change” value was 0.266. For RRIRRRPPRLPRPRPRPLFFPRP, the “shrunken log2 fold change” value was 0.137. With RRIRRRPPRLPRPRPRPLFPPRP the “shrunken log2 fold change” value was 0.0907. For RRIRRRPPRLPRPRPRPLGKPRP, the “shrunken log2 fold change” value was -0.017. In the case of RRIRRRPPRLPRPRPRPLGRPRP, the “shrunken log2 fold change” value is reported as -0.143. With RRIRRRPPRLPRPRPRPLHNPRP the “shrunken log2 fold change” value was 0.188. For RRIRRRPPRLPRPRPRPLKGPRP, the “shrunken log2 fold change” value was -0.0966. RRIRRRPPRLPRPRPRPLKHPRP was tested, and the “shrunken log2 fold change” value was 0.208. With RRIRRRPPRLPRPRPRPLKQPRP the “shrunken log2 fold change” value was 0.223. For RRIRRRPPRLPRPRPRPLKSPRP, the “shrunken log2 fold change” value was -0.215. In the case of RRIRRRPPRLPRPRPRPLLIPRP, the “shrunken log2 fold change” value is reported as 0.145. RRIRRRPPRLPRPRPRPLLSPRP was tested, and the “shrunken log2 fold change” value was 0.148. RRIRRRPPRLPRPRPRPLNKPRP was tested, and the “shrunken log2 fold change” value was 0.0514. With RRIRRRPPRLPRPRPRPLPQPRP the “shrunken log2 fold change” value was 0.436. In the case of RRIRRRPPRLPRPRPRPLQQPRP, the “shrunken log2 fold change” value is reported as 0.0366. With RRIRRRPPRLPRPRPRPLQYPRP the “shrunken log2 fold change” value was 0.615. For RRIRRRPPRLPRPRPRPLRDPRP, the “shrunken log2 fold change” value was 1.05. In the case of RRIRRRPPRLPRPRPRPLRMPRP, the “shrunken log2 fold change” value is reported as 1.2. RRIRRRPPRLPRPRPRPLSRPRP was tested, and the “shrunken log2 fold change” value was 0.0601. In the case of RRIRRRPPRLPRPRPRPLVDPRP, the “shrunken log2 fold change” value is reported as 0.106. In the case of RRIRRRPPRLPRPRPRPLVMPRP, the “shrunken log2 fold change” value is reported as 0.164. In the case of RRIRRRPPRLPRPRPRPLVRPRP, the “shrunken log2 fold change” value is reported as 0.033. For RRIRRRPPRLPRPRPRPMAHPRP, the “shrunken log2 fold change” value was 0.0412. RRIRRRPPRLPRPRPRPMCFPRP was tested, and the “shrunken log2 fold change” value was -0.0162. RRIRRRPPRLPRPRPRPMCRPRP was tested, and the “shrunken log2 fold change” value was 0.37. With RRIRRRPPRLPRPRPRPMCSPRP the “shrunken log2 fold change” value was -0.0511. RRIRRRPPRLPRPRPRPMGPPRP was tested, and the “shrunken log2 fold change” value was 0.135. For RRIRRRPPRLPRPRPRPMHIPRP, the “shrunken log2 fold change” value was 0.238. RRIRRRPPRLPRPRPRPMIIPRP was tested, and the “shrunken log2 fold change” value was -0.171. With RRIRRRPPRLPRPRPRPMITPRP the “shrunken log2 fold change” value was -0.172. In the case of RRIRRRPPRLPRPRPRPMKIPRP, the “shrunken log2 fold change” value is reported as 0.186. In the case of RRIRRRPPRLPRPRPRPMMFPRP, the “shrunken log2 fold change” value is reported as 0.284. For RRIRRRPPRLPRPRPRPMPFPRP, the “shrunken log2 fold change” value was -0.0201. For RRIRRRPPRLPRPRPRPMPKPRP, the “shrunken log2 fold change” value was 0.0841. In the case of RRIRRRPPRLPRPRPRPMQHPRP, the “shrunken log2 fold change” value is reported as 0.566. RRIRRRPPRLPRPRPRPMRKPRP was tested, and the “shrunken log2 fold change” value was 0.58. In the case of RRIRRRPPRLPRPRPRPMSVPRP, the “shrunken log2 fold change” value is reported as -0.0792. RRIRRRPPRLPRPRPRPMSWPRP was tested, and the “shrunken log2 fold change” value was 0.0104. With RRIRRRPPRLPRPRPRPMTHPRP the “shrunken log2 fold change” value was -0.17. In the case of RRIRRRPPRLPRPRPRPMTMPRP, the “shrunken log2 fold change” value is reported as 0.0735. RRIRRRPPRLPRPRPRPMVTPRP was tested, and the “shrunken log2 fold change” value was 0.247. In the case of RRIRRRPPRLPRPRPRPMYSPRP, the “shrunken log2 fold change” value is reported as -0.0989. For RRIRRRPPRLPRPRPRPMYWPRP, the “shrunken log2 fold change” value was -0.185. RRIRRRPPRLPRPRPRPNDYPRP was tested, and the “shrunken log2 fold change” value was -0.407. For RRIRRRPPRLPRPRPRPNGCPRP, the “shrunken log2 fold change” value was 0.00793. In the case of RRIRRRPPRLPRPRPRPNGDPRP, the “shrunken log2 fold change” value is reported as 0.241. RRIRRRPPRLPRPRPRPNGEPRP was tested, and the “shrunken log2 fold change” value was 0.43. With RRIRRRPPRLPRPRPRPNGVPRP the “shrunken log2 fold change” value was 0.00234. In the case of RRIRRRPPRLPRPRPRPNHTPRP, the “shrunken log2 fold change” value is reported as -0.306. With RRIRRRPPRLPRPRPRPNHYPRP the “shrunken log2 fold change” value was -0.314. RRIRRRPPRLPRPRPRPNKKPRP was tested, and the “shrunken log2 fold change” value was -0.272. RRIRRRPPRLPRPRPRPNLYPRP was tested, and the “shrunken log2 fold change” value was -0.0246. In the case of RRIRRRPPRLPRPRPRPNMDPRP, the “shrunken log2 fold change” value is reported as -0.442. For RRIRRRPPRLPRPRPRPNMTPRP, the “shrunken log2 fold change” value was -0.136. RRIRRRPPRLPRPRPRPNNQPRP was tested, and the “shrunken log2 fold change” value was -0.0752. In the case of RRIRRRPPRLPRPRPRPNPTPRP, the “shrunken log2 fold change” value is reported as 0.0244. RRIRRRPPRLPRPRPRPNQDPRP was tested, and the “shrunken log2 fold change” value was 0.125. In the case of RRIRRRPPRLPRPRPRPNQNPRP, the “shrunken log2 fold change” value is reported as 0.14. With RRIRRRPPRLPRPRPRPNRQPRP the “shrunken log2 fold change” value was -0.031. RRIRRRPPRLPRPRPRPNTHPRP was tested, and the “shrunken log2 fold change” value was -0.126. For RRIRRRPPRLPRPRPRPNTKPRP, the “shrunken log2 fold change” value was 0.191. In the case of RRIRRRPPRLPRPRPRPNVHPRP, the “shrunken log2 fold change” value is reported as -0.203. For RRIRRRPPRLPRPRPRPNVPPRP, the “shrunken log2 fold change” value was 0.032. In the case of RRIRRRPPRLPRPRPRPNWTPRP, the “shrunken log2 fold change” value is reported as -0.285. For RRIRRRPPRLPRPRPRPNWYPRP, the “shrunken log2 fold change” value was -0.197. In the case of RRIRRRPPRLPRPRPRPNYAPRP, the “shrunken log2 fold change” value is reported as 0.0933. For RRIRRRPPRLPRPRPRPPAYPRP, the “shrunken log2 fold change” value was 0.618. In the case of RRIRRRPPRLPRPRPRPPDFPRP, the “shrunken log2 fold change” value is reported as -0.079. RRIRRRPPRLPRPRPRPPDIPRP was tested, and the “shrunken log2 fold change” value was -0.0254. RRIRRRPPRLPRPRPRPPEMPRP was tested, and the “shrunken log2 fold change” value was 0.66. In the case of RRIRRRPPRLPRPRPRPPFDPRP, the “shrunken log2 fold change” value is reported as 0.735. RRIRRRPPRLPRPRPRPPFFPRP was tested, and the “shrunken log2 fold change” value was 0.565. RRIRRRPPRLPRPRPRPPFQPRP was tested, and the “shrunken log2 fold change” value was 0.746. In the case of RRIRRRPPRLPRPRPRPPHHPRP, the “shrunken log2 fold change” value is reported as 1.09. RRIRRRPPRLPRPRPRPPHLPRP was tested, and the “shrunken log2 fold change” value was 0.52. With RRIRRRPPRLPRPRPRPPHRPRP the “shrunken log2 fold change” value was 1.36. For RRIRRRPPRLPRPRPRPPITPRP, the “shrunken log2 fold change” value was 0.13. RRIRRRPPRLPRPRPRPPKKPRP was tested, and the “shrunken log2 fold change” value was 1.12. For RRIRRRPPRLPRPRPRPPLLPRP, the “shrunken log2 fold change” value was 0.675. For RRIRRRPPRLPRPRPRPPMYPRP, the “shrunken log2 fold change” value was 0.0631. RRIRRRPPRLPRPRPRPPNEPRP was tested, and the “shrunken log2 fold change” value was 0.804. For RRIRRRPPRLPRPRPRPPPHPRP, the “shrunken log2 fold change” value was 0.968. For RRIRRRPPRLPRPRPRPPQKPRP, the “shrunken log2 fold change” value was 1.31. RRIRRRPPRLPRPRPRPPTNPRP was tested, and the “shrunken log2 fold change” value was 0.643. For RRIRRRPPRLPRPRPRPPTQPRP, the “shrunken log2 fold change” value was 0.678. For RRIRRRPPRLPRPRPRPPVWPRP, the “shrunken log2 fold change” value was 0.328. In the case of RRIRRRPPRLPRPRPRPPWCPRP, the “shrunken log2 fold change” value is reported as 0.294. For RRIRRRPPRLPRPRPRPPWTPRP, the “shrunken log2 fold change” value was 0.443. RRIRRRPPRLPRPRPRPPYMPRP was tested, and the “shrunken log2 fold change” value was 0.315. For RRIRRRPPRLPRPRPRPQACPRP, the “shrunken log2 fold change” value was 0.0222. With RRIRRRPPRLPRPRPRPQAEPRP the “shrunken log2 fold change” value was 0.0907. For RRIRRRPPRLPRPRPRPQCCPRP, the “shrunken log2 fold change” value was 0.49. With RRIRRRPPRLPRPRPRPQCYPRP the “shrunken log2 fold change” value was -0.136. In the case of RRIRRRPPRLPRPRPRPQDDPRP, the “shrunken log2 fold change” value is reported as -0.0295. With RRIRRRPPRLPRPRPRPQEAPRP the “shrunken log2 fold change” value was 0.0364. For RRIRRRPPRLPRPRPRPQFYPRP, the “shrunken log2 fold change” value was -0.41. In the case of RRIRRRPPRLPRPRPRPQHIPRP, the “shrunken log2 fold change” value is reported as -0.338. For RRIRRRPPRLPRPRPRPQIVPRP, the “shrunken log2 fold change” value was -0.13. For RRIRRRPPRLPRPRPRPQKCPRP, the “shrunken log2 fold change” value was -0.288. For RRIRRRPPRLPRPRPRPQKRPRP, the “shrunken log2 fold change” value was 0.13. RRIRRRPPRLPRPRPRPQMHPRP was tested, and the “shrunken log2 fold change” value was 0.354. For RRIRRRPPRLPRPRPRPQNTPRP, the “shrunken log2 fold change” value was -0.218. With RRIRRRPPRLPRPRPRPQRIPRP the “shrunken log2 fold change” value was -0.00231. For RRIRRRPPRLPRPRPRPQSSPRP, the “shrunken log2 fold change” value was -0.0217.
